# In patent US20220356259A1 (SHIHUDA PHARMACEUTICAL GROUP JILIN, published 2022):
# T1: fusion protein in which the extracellular domain of human GITR is fused with the domain of mouse IgG1-Fc (human)
# T1 construct: The GITR part is said to start at residue 1 of Q9Y5U5, so the entry may hold a signal peptide; Made in HEK293 cells, Protein A purified; also called hGITR-muFc; human GITR protein
# T1 chain: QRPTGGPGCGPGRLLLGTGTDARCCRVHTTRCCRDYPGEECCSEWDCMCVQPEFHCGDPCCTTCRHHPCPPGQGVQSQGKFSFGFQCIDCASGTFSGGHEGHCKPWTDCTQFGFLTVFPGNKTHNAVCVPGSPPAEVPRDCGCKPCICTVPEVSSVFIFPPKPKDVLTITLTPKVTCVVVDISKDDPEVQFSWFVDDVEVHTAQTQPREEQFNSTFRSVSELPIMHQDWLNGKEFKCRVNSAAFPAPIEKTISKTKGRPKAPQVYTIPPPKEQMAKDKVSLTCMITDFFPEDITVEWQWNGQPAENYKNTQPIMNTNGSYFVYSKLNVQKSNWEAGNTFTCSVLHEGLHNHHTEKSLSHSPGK
# Assays:
# [1] = target: T1, fusion protein in which the …; experiment: ELISA, hGITR-muFc coated at 5 ug/ml, anti-human IgG-HRP (FIG. 5)
# Protocol: (§1) An ELISA plate was coated with 5 μg/ml of hGITR-muFc at 100 μl/well, and incubated overnight at 4° C. The plate was washed with 10 mM of PBS/Tween (0.05%) at pH 7.4 for 3 times, blocked with PBS containing 3% BSA and incubated at 37° C. for 2 h; then washed for 3 times, added with the above 9 isolated antigen-binding proteins of the present application in 3-fold dilutions starting from 10 μg/ml, incubated at 37° C. for 2 h, washed for 3 times, added with anti-human IgG-HRP enzyme-labeled secondary antibody, incubated at 37° C. for 1 h, cleaned, then developed with TMB substrate, and subjected to spectrophotometric analysis at OD450 nm. The results are shown in FIG. 5 and FIG. 6, in which the EC₅₀ values of various proteins in FIG. 5 and FIG. 6 are shown in Table 3 and Table 4, respectively. It can be seen from FIG. 5 and FIG. 6 as well as Table 3 and Table 4 that, the humanized antibodies (i.e., the isolated antigen-binding proteins of the present application 3E2 1-2, 3E2 1-3, 3E2 1-4, 3E2 2-2, 3E2 2-3, 3E2 2-4, 3E2 3-2, 3E2 3-3 and 3E2 3-4) have a binding affinity to the antigen that is equivalent to that of the parent antibody (i.e., the isolated antigen-binding protein C3E2 of the present application).
# [2] = target: T1, fusion protein in which the …; experiment: ELISA, hGITR-muFc coated at 5 ug/ml, anti-human IgG-HRP (FIG. 6)
# Protocol: as §1
# [3] = target: T1, fusion protein in which the …; experiment: BLI (Octet K2), antibody on AHC biosensor, hGITR-muFc in solution from 100 nM
# Protocol: Using the BLI method, the above 9 isolated antigen-binding proteins of the present application and C3E2 were immobilized on the AHC biosensor at a concentration of 10 µg/ml. At the same time, the hGITR-muFc prepared in Example 1 was diluted 2-fold from 100 nM in 5 gradients. The reaction plate was placed on Octet K2 instrument, meanwhile the program was set as Baseline 60 s, Association 20 s, Disscociation 300 s, Baseline 2 30 s, Loading 40 s, custom 5 s. At the end of the program, curve fitting and parameter conversion were conducted.
Binder,EC50 [1] [ng/mL],EC50 [2] [ng/mL],Kd [3] [pM],koff [3] [s⁻¹],kon [3] [M⁻¹ s⁻¹]
"isolated antigen-binding protein 3E2 2-3 (antibody, human IgG1, kappa, also called VHV2/VLV3) heavy: not shown light: DIVMTQSPLSLPVTLGQPASISCRSSQTIVHSNGNTYLEWYLQKPGQSPKLLIYKVSNRFSGVPDRFSGSGSGTDFTLKISRVEAEDVGVYYCFQGSHVPWTFGGGTKLEIKRTVAAPSVFIFPPSDEQLKSGTASVVCLLNNFYPREAKVQWKVDNALQSGNSQESVTEQDSKDSTYSLSSTLTLSKADYEKHKVYACEVTHQGLSSPVTKSFNRGEC",–,4.71,< 1,< 1e-07,2.46e+06
"isolated antigen-binding protein 3E2 1-3 (antibody, human IgG1, kappa, also called VHV1/VLV3) heavy: not shown light: DIVMTQSPLSLPVTLGQPASISCRSSQTIVHSNGNTYLEWYLQKPGQSPKLLIYKVSNRFSGVPDRFSGSGSGTDFTLKISRVEAEDVGVYYCFQGSHVPWTFGGGTKLEIKRTVAAPSVFIFPPSDEQLKSGTASVVCLLNNFYPREAKVQWKVDNALQSGNSQESVTEQDSKDSTYSLSSTLTLSKADYEKHKVYACEVTHQGLSSPVTKSFNRGEC",5.83,–,< 1,< 1e-07,2.32e+06
"isolated antigen-binding protein 3E2 1-4 (antibody, human IgG1, kappa, also called VHV1/VLV4) heavy: not shown light: DIVMTQSPLSLPVTLGDQASISCRSSQTIVHSNGNTYLEWYLQKPGQSPKLLIYKVSNRFSGVPDRFSGSGSGTDFTLKISRVEAEDVGVYYCFQGSHVPWTFGGGTKLEIKRTVAAPSVFIFPPSDEQLKSGTASVVCLLNNFYPREAKVQWKVDNALQSGNSQESVTEQDSKDSTYSLSSTLTLSKADYEKHKVYACEVTHQGLSSPVTKSFNRGEC",4.52,–,< 1,< 1e-07,2.55e+06
"isolated antigen-binding protein 3E2 1-2 (antibody, human IgG1, kappa, V domains shown, also called VHV1/VLV2) VH: QVTLQESGPTLVKPTQTLTLTCTFSGFSLSTFGMGVGWIRQPPGKGLEWLVLILWNDIKYYNPALKSLLTVTKDTSKNQVVLTITNMDPVDTATYYCARVDGYYGYFDVWGQGTMVTVSS VL: DIVMTQSPLSLPVTLGQPASISCRSSQTIVHSNGNTYLEWYLQRPGQSPKLLIYKVSNRFSGVPDRFSGSGSGTDFTLKISRVEAEDVGVYYCFQGSHVPWTFGGGTKVEIKR",5.9,–,< 1,< 1e-07,2.49e+06
"isolated antigen-binding protein 3E2 2-2 (antibody, human IgG1, kappa, also called VHV2/VLV2) heavy: not shown light: DIVMTQSPLSLPVTLGQPASISCRSSQTIVHSNGNTYLEWYLQRPGQSPKLLIYKVSNRFSGVPDRFSGSGSGTDFTLKISRVEAEDVGVYYCFQGSHVPWTFGGGTKVEIKRTVAAPSVFIFPPSDEQLKSGTASVVCLLNNFYPREAKVQWKVDNALQSGNSQESVTEQDSKDSTYSLSSTLTLSKADYEKHKVYACEVTHQGLSSPVTKSFNRGEC",5.64,–,12.5,3.01e-05,2.4e+06

# The remaining lines, values ahead:
EC50 [1] [ng/mL],EC50 [2] [ng/mL],Kd [3] [pM],koff [3] [s⁻¹],kon [3] [M⁻¹ s⁻¹],Binder
6.21,6.72,6.01,1.83e-05,3.05e+06,"isolated antigen-binding protein C3E2 (antibody, human IgG1, kappa, V domains shown, made in HEK293 cells; also called parent antibody; chimeric antibody) VH: QVQLQESGPGILQPSQTLSLTCSFSGFSLSTFGMGVGWIRQPSGKGLEWLVLILWNDIKYYNPALKSLLTVSKDTSNNQVFLKIASVDTADTATYYCARVDGYYGYFDVWGTGTTVTVSS VL: DIVMTQSPLSLPVSLGDQASISCRSSQTIVHSNGNTYLEWYLQKPGQSPKLLIYKVSNRFSGVPDRFSGSGSGTDFTLKISRVEAEDLGVYYCFQGSHVPWTFGGGTKLEIKR"
–,6.04,< 1,< 1e-07,2.49e+06,"isolated antigen-binding protein 3E2 3-3 (antibody, human IgG1, kappa, also called VHV3/VLV3) heavy: not shown light: DIVMTQSPLSLPVTLGQPASISCRSSQTIVHSNGNTYLEWYLQKPGQSPKLLIYKVSNRFSGVPDRFSGSGSGTDFTLKISRVEAEDVGVYYCFQGSHVPWTFGGGTKLEIKRTVAAPSVFIFPPSDEQLKSGTASVVCLLNNFYPREAKVQWKVDNALQSGNSQESVTEQDSKDSTYSLSSTLTLSKADYEKHKVYACEVTHQGLSSPVTKSFNRGEC"
–,5.28,< 1,< 1e-07,2.52e+06,"isolated antigen-binding protein 3E2 3-2 (antibody, human IgG1, kappa, also called VHV3/VLV2) heavy: not shown light: DIVMTQSPLSLPVTLGQPASISCRSSQTIVHSNGNTYLEWYLQRPGQSPKLLIYKVSNRFSGVPDRFSGSGSGTDFTLKISRVEAEDVGVYYCFQGSHVPWTFGGGTKVEIKRTVAAPSVFIFPPSDEQLKSGTASVVCLLNNFYPREAKVQWKVDNALQSGNSQESVTEQDSKDSTYSLSSTLTLSKADYEKHKVYACEVTHQGLSSPVTKSFNRGEC"
–,6.43,4.72,1.23e-05,2.6e+06,"isolated antigen-binding protein 3E2 3-4 (antibody, human IgG1, kappa, also called VHV3/VLV4) heavy: not shown light: DIVMTQSPLSLPVTLGDQASISCRSSQTIVHSNGNTYLEWYLQKPGQSPKLLIYKVSNRFSGVPDRFSGSGSGTDFTLKISRVEAEDVGVYYCFQGSHVPWTFGGGTKLEIKRTVAAPSVFIFPPSDEQLKSGTASVVCLLNNFYPREAKVQWKVDNALQSGNSQESVTEQDSKDSTYSLSSTLTLSKADYEKHKVYACEVTHQGLSSPVTKSFNRGEC"
–,4.8,< 1,< 1e-07,2.41e+06,"isolated antigen-binding protein 3E2 2-4 (antibody, human IgG1, kappa, also called VHV2/VLV4) heavy: not shown light: DIVMTQSPLSLPVTLGDQASISCRSSQTIVHSNGNTYLEWYLQKPGQSPKLLIYKVSNRFSGVPDRFSGSGSGTDFTLKISRVEAEDVGVYYCFQGSHVPWTFGGGTKLEIKRTVAAPSVFIFPPSDEQLKSGTASVVCLLNNFYPREAKVQWKVDNALQSGNSQESVTEQDSKDSTYSLSSTLTLSKADYEKHKVYACEVTHQGLSSPVTKSFNRGEC"
